Measured values taken from paper PMC6880163 (Journal of Virology, 2019).
Positions count from the first letter of the chain named. In names and notes the source's numbering stands.

B1: TagRFP/TRIM69 V95A L96A double mutant (natural protein, human, UniProt Q86WT6 1-500, looked up)
chain: MEVSTNPSSNIDPGDYVEMNDSITHLPSKVVIQDITMELHCPLCNDWFRDPLMLSCGHNFCEACIQDFWRLQAKETFCPECKMLCQYNNCTFNPAADKLVEKIKKLPLLKGHPQCPEHGENLKLFSKPDGKLICFQCKDARLSVGQSKEFLQISDAVHFFTEELAIQQGQLETTLKELQTLRNMQKEAIAAHKENKLHLQQHVSMEFLKLHQFLHSKEKDILTELREEGKALNEEMELNLSQLQEQCLLAKDMLVSIQAKTEQQNSFDFLKDITTLLHSLEQGMKVLATRELISRKLNLGQYKGPIQYMVWREMQDTLCPGLSPLTLDPKTAHPNLVLSKSQTSVWHGDIKKIMPDDPERFDSSVAVLGSRGFTSGKWYWEVEVAKKTKWTVGVVRESIIRKGSCPLTPEQGFWLLRLRNQTDLKALDLPSFSLTLTNNLDKVGIYLDYEGGQLSFYNAKTMTHIYTFSNTFMEKLYPYFCPCLNDGGENKEPLHILHPQ
notes: also called multimerization-defective mutant of TRIM69; not shown: TagRFP, N-terminal, kept
B2: TagRFP/TRIM69 L99A single mutant (natural protein, human, UniProt Q86WT6 1-500, looked up)
chain: B1 chain with A95V, A96L, L99A
notes: as for B1

Target: the molecule itself
Assay: cross-linking; intact doxycycline-induced HT1080 cells in 1x PBS treated with 0.2 mM EGS (membrane-permeable) for 30 min at room temperature, lysed in LDS sample buffer, Western blot with anti-RFP antibody

Row | Protein | stoichiometry N
1 | B1 | 2
2 | B2 | 2
